Measurements published in article PMC3713452 (2013).

Target: T1, GST-Pdcd4 (GST fusion to full length Drosophila Pdcd4) (Drosophila, UniProt Q9VY91)
T1 chain: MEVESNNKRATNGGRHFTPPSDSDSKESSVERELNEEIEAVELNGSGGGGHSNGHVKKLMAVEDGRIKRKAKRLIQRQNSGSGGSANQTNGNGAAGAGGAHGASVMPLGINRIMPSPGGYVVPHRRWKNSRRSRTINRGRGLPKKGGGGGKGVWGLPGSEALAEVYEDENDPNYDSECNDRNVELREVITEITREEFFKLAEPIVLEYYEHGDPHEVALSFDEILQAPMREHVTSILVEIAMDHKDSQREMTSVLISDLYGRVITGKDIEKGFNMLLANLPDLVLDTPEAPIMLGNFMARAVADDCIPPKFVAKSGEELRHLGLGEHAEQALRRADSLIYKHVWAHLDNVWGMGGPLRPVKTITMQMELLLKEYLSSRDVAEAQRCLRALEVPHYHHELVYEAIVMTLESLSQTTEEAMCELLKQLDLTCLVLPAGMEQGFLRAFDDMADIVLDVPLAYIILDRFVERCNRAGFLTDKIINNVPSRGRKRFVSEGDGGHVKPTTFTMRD
Assay: GST pull-down (affinity chromatography, immunoblot)

B1: recombinant Drosophila eIF4A (6His eIF4A) (protein)
chain: MDDRNEIPQDGPASMEPEGVIESTWHEVYDNFDDMNLREELLRGIYGYGFEKPSAIQQRAIIPCVRGRDVIAQAQSGTGKTATFSIAILQQIDTSIRECQALILAPTRELATQIQRVVMALGEYMKVHSHACIGGTNVREDARILESGCHVVVGTPGRVYDMINRKVLRTQYIKLFVLDEADEMLSRGFKDQIQDVFKMLPPDVQVILLSATMPPDVLEVSRCFMRDPVSILVKKEELTLEGIKQFYVNVKQENWKLGTLCDLYDTLSITQSVIFCNTRRKVDQLTQEMSIHNFTVSAMHGDMEQRDREVIMKQFRSGSSRVLITTDLLARGIDVQQVSLVINYDLPSNRENYIHRIGRGGRFGRKGVAINFITDDDRRILKDIEQFYHTTIEEMPANIADLI
B1: binds.
